In the RNAGym collection of RNA variant scans (doi:10.1101/gr.219683.116):

B1: mRNA-splicing (parent)
chain: AGUUGCUGCUGGGAGCUCCAGCACAGUGAAAUGGACAGAAGGGCAGAGCAA

Variants of: B1
Assay: exon inclusion enrichment index; higher = more inclusion; WT1 exon 5 minigene, HEK293

Variant	exon inclusion enrichment index
AGUUUCUUUUGGGAGCUCUAGCACAGUGAAAUGGACAGAAGGGCAGAGCAA [G5U G8U C9U C19U]	0.00467
AGUUCGCGCACGGAGCUCCAGCACAGUGAAAUGGACAGAAGGGCAGAGCAA [G5C C6G U7C U10A G11C]	3.41
AGUUAUACUUGGGAGCUCCAGCACAGUGAAAUGGACAGAAGGGCAGAGCAA [G5A C6U U7A G8C C9U]	0.218
AGUUACCACCGGGAGCUCCAGCACAGUGAAAUGGACAGAGAGGCAGAGCAA [G5A U7C G8A U10C A40G G41A]	1.12
AGUUAGGGAGAGGAGCUCCAGCACAGUGAAAUGGACAGAAGGGCAGAGCAA [G5A C6G U7G C9A U10G G11A]	0.00349
AGUUGACGACGGGAGCUCCAGCACAGUGAAAUUAACAGAAGGGCAGAGCAA [C6A U7C C9A U10C G33U G34A]	0.907
AGUUAGGGAUGGGAGCUCCAGCACAGUGAAAUGGGCAGAAGGGCAGAGCAA [G5A C6G U7G C9A A35G]	0.00109
AGUUCUUCUCGGGAGCUCCAGCCGAGUGAAAUGGACAGAAGGGCAGAGCAA [G5C C6U G8C C9U U10C A23C C24G]	3.11
AGGAUCUUUUGGGAGCUCCAGCACAGUGAAAUGGACAGAAGGGCAGAGCAA [U3G U4A G5U G8U C9U]	0.0683
AGUUCACACAGAGAGCUCCAGCACAGUGAAAUGGACAGAAGGGCAGAGCAA [G5C C6A U7C G8A U10A G12A]	0.208
AGUUCACACAGGGAGCUCCAGCACAGUGAAAUGGACAGAAGGGCUGAGCAA [G5C C6A U7C G8A U10A A45U]	0.211
AGUUCGCGCCGGGAGCUCCAGCACAGUGAAAUGGCAAGAAGGGCAGAGCAA [G5C C6G U7C U10C A35C C36A]	2.13
AGUUGCUGCUUUGAGCUCCAGCACAGUGAAAUGGACAGAAGGGCAGAGCAA [G11U G12U]	0.755
AGUUGACGACGGGAGCUCCAGCACAGUGAAAUGGACAGAAGAACAGAGCAA [C6A U7C C9A U10C G42A G43A]	4.69
AGUUAUAUAUGGGAGCUCCAUGACAGUGAAAUGGACAGAAGGGCAGAGCAA [G5A C6U U7A G8U C9A G21U C22G]	0.0561
AGUUAUAUAUGGGAGCUCCAGCACAGUGAAAUGGACAGAAGGGCAGAACAA [G5A C6U U7A G8U C9A G48A]	0.185
AGUUAGGGAUGGGAGCUCCAGCACAGUGAAAUGUUCAGAAGGGCAGAGCAA [G5A C6G U7G C9A G34U A35U]	0.00101
AGUUACCACCGGGAGCUCCAGCACAGUGAAAUGGACAGAAGGAAAGAGCAA [G5A U7C G8A U10C G43A C44A]	3.99
AGUUGCAUAUGGGAGCUCCAGCACAGUGAAAUGGACAGAAGGGCAGAGCAA [U7A G8U C9A]	0.565
AGUUGGCGCCGGGAGCUCCAGCACAGUGAAAUGGACAGAAGGGCAGAGCAA [C6G U7C U10C]	3.22
AGUUCACACAGGGAGCUCUGGCACAGUGAAAUGGACAGAAGGGCAGAGCAA [G5C C6A U7C G8A U10A C19U A20G]	0.0251
AGUUGACGACGGGAGCUCCAGCACAGUGAAAUGGACAGAAGGGGAGAGCAA [C6A U7C C9A U10C C44G]	4.07
AGUUAGGGAUGGGAGCUCCAGCACAGUGAAAUGGACACCAGGGCAGAGCAA [G5A C6G U7G C9A G38C A39C]	0.00466
AGUUCUUCUCGGGAGCUCCAGCACAGUGAAAUGGACAGCCGGGCAGAGCAA [G5C C6U G8C C9U U10C A39C A40C]	2.43
AGUUCUUCUCGGGAGCUCCAGCACAGUGAAAUGGACAGCGGGGCAGAGCAA [G5C C6U G8C C9U U10C A39C A40G]	2.03
AGUUAGGGAUGGGAGCUCCAGCACAGUGAAAUGGACAGAAGGGGUGAGCAA [G5A C6G U7G C9A C44G A45U]	0.00421

Variant	exon inclusion enrichment index
AGUUGACGACGGGAGCUCAGGCACAGUGAAAUGGACAGAAGGGCAGAGCAA [C6A U7C C9A U10C C19A A20G]	0.968
AGUUAUAUAUGGGAGCCGCAGCACAGUGAAAUGGACAGAAGGGCAGAGCAA [G5A C6U U7A G8U C9A U17C C18G]	0.0591
AGUUUCUUUUGGGAGCUCCAGCACAGUGAAAUGGACAGAAGGGCAACGCAA [G5U G8U C9U G46A A47C]	0.466
AGUUCGCGUAGGGAGCUCCAGCACAGUGAAAUGGACAGAAGGGCAGAGCAA [G5C C6G U7C C9U U10A]	0.144
AGUUAGGGAUGGGAGCUCCAGCACAGUGAAAUGGACAGAAGGACAGAGCAA [G5A C6G U7G C9A G43A]	0.00629
AGUUCGCGCCGGGAGCUCAGGCACAGUGAAAUGGACAGAAGGGCAGAGCAA [G5C C6G U7C U10C C19A A20G]	0.953
AGUUAUAUAUGGGAGCUCCAGCACUCUGAAAUGGACAGAAGGGCAGAGCAA [G5A C6U U7A G8U C9A A25U G26C]	0.157
AGUUCGCGCCGGGAGCUCCAGCACAUAGAAAUGGACAGAAGGGCAGAGCAA [G5C C6G U7C U10C G26U U27A]	2.22
AGUUGACGACGGGAGCUCCCCCACAGUGAAAUGGACAGAAGGGCAGAGCAA [C6A U7C C9A U10C A20C G21C]	2.31
AGUUCGCGCCGGGAGCUCCAUGACAGUGAAAUGGACAGAAGGGCAGAGCAA [G5C C6G U7C U10C G21U C22G]	3.57
AGUUGACGACGGGAGCUCCAGACCAGUGAAAUGGACAGAAGGGCAGAGCAA [C6A U7C C9A U10C C22A A23C]	3.88
AGUUUCUUUUGGGAGCUCCAGCACAGUGAAAUGCCCAGAAGGGCAGAGCAA [G5U G8U C9U G34C A35C]	0.0104
AGUUCGCGCCGGGAGCUCCAGCUGAGUGAAAUGGACAGAAGGGCAGAGCAA [G5C C6G U7C U10C A23U C24G]	3.71
AGUUAGGGAUGGGAGCUCCAGCACAGUGAAAUGGACAGGAGGGCAGAGCAA [G5A C6G U7G C9A A39G]	0.00219
AGUUACCACCGGGAGCUCCAGCACAGUGAAACAGACAGAAGGGCAGAGCAA [G5A U7C G8A U10C U32C G33A]	1.18
AGUUGCUGCUGGGACCUCCAGCACAGUGAAAUGGACAGAAGGGCAGAGCAA [G15C]	0.187
AGUUAGGGAUGGGAGCUCCAGCACAGUGAAAUGGACAGAUCGGCAGAGCAA [G5A C6G U7G C9A A40U G41C]	0.0209
AGUUGAAGAAGGGAGCUCCAGCACAGUGAAAUGGGAAGAAGGGCAGAGCAA [C6A U7A C9A U10A A35G C36A]	0.281
AGUUGAAGAAGGGAGCUCCAGCACAGUGAAAUGGACCGAAGGGCAGAGCAA [C6A U7A C9A U10A A37C]	1.72
AGUUGCUGCUGGGAGCUCCAGCACAGUGAAAUGGACAGAAGGGCGAAGCAA [A45G G46A]	0.84
AGUUCGCGCCGGGAGCUCCAGCACAGUGAGAUGGACAGAAGGGCAGAGCAA [G5C C6G U7C U10C A30G]	3.89
AGUUCACACAGGGAGCUCCAGCACAGUGAAAUGGACAGGGGGGCAGAGCAA [G5C C6A U7C G8A U10A A39G A40G]	0.0106
AGUUCGCGCCGGGAGCUCCAGCACAGUGAAAUCGACAGAAGGGCAGAGCAA [G5C C6G U7C U10C G33C]	3.55
AGUUCUUCUCGGGAGUUCCAGCACAGUGAAAUGGACAGAAGGGCAGAGCAA [G5C C6U G8C C9U U10C C16U]	2.36
AGUUGCUGCUGGGAGCUCCAGCUGAGUGAAAUGGACAGAAGGGCAGAGCAA [A23U C24G]	0.96
